Results: US20260166084A1 (INSTITUTE OF CANCER RESEARCH ROYAL CANCER HOSPITAL, published 2026)

Key:
[1] = target: T1, CRBN/DDB1 protein complex (no IMiD) (UniProt Q96SW2 1-442; Q16531 1-1140, limits assumed); assay: size exclusion chromatography (Superose 6) with SDS-PAGE of fractions, no iberdomide
T1 construct: As used in the SEC sample without iberdomide; also called CRBN/DDB1 complex
Protocol: Purified CRBN/DDB1 protein complex and iTAG2 protein were mixed together and subjected to SEC in the presence or absence of iberdomide, shown in FIG. 14.
100 μM iberdomide was included in one of the samples and both were incubated on ice for 1 hour, then centrifuged at 21000 g for 10 minutes prior to injection to remove potential aggregates. The Superose 6 column was pre-equilibrated in the same buffer (20 mM HEPES pH 7.0, 200 mM NaCl and 1 mM TCEP) at a flow rate of 0.25 mL/min before injection of 50 μL of each sample.

[2] = target: T2, complex formed between CRBN/DDB1 and iberdomide (UniProt Q96SW2 1-442; Q16531 2-1140, limits assumed); assay: TR-FRET displacement of Sulfo-Cy5 Aiolos peptide probe from CRBN/DDB1 with 10 uM iberdomide. The figure is told overall for the three IMiDs.
T2 construct: mature; also called CRBN/DDB1 in the presence of iberdomide; CRBN/DDB1 with CC-220
T2 sequence (Q96SW2 whole entry, chain 1 of 2): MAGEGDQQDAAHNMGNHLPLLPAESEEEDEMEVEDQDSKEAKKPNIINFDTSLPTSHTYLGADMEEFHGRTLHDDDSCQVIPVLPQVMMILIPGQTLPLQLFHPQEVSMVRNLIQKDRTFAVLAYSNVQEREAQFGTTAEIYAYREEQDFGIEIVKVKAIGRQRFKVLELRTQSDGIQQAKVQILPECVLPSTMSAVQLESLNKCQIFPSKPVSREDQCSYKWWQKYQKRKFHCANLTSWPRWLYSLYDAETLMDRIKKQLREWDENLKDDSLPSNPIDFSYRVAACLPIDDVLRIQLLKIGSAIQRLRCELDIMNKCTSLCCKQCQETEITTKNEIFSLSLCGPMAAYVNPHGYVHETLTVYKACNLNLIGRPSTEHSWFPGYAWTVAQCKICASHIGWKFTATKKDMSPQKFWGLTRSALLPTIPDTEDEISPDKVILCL
T2 sequence (Q16531 2-1140 limits assumed, chain 2 of 2): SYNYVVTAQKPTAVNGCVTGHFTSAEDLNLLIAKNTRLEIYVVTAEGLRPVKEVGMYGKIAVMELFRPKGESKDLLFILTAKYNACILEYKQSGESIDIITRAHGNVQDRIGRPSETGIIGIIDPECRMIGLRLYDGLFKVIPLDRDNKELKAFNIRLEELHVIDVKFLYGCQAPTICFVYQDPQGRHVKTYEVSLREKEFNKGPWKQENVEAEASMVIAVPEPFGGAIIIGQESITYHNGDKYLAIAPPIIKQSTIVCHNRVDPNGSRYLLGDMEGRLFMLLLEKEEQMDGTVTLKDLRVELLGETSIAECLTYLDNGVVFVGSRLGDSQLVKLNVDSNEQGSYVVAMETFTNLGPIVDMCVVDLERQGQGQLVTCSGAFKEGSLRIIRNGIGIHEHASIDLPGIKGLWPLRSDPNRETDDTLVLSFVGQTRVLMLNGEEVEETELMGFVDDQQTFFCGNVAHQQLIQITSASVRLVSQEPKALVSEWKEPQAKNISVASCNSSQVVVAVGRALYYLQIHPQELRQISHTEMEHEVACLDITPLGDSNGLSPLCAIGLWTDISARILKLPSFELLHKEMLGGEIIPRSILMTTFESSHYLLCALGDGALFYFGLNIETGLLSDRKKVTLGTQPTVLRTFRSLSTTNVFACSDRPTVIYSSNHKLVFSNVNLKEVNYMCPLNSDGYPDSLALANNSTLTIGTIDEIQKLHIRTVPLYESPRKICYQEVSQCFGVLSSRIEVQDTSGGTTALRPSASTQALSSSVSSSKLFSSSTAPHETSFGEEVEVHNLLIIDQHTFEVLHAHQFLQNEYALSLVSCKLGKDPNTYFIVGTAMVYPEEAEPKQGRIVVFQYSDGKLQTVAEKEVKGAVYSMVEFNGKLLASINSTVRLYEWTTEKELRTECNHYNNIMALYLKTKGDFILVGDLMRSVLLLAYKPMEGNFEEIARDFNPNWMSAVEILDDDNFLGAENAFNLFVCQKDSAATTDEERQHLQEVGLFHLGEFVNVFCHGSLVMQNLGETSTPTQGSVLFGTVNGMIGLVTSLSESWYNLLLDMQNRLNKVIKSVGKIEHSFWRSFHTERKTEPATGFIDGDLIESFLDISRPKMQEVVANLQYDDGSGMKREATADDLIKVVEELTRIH
Protocol: (§1) All TR-FRET assays were ran in Black 384-well ProxiPlate Plus (Perkin-Elmer, USA), in a buffer containing 20 mM HEPES pH 8.0, 150 mM NaCl, 0.5 mM TCEP, 0.05% Tween 20 and 0.05% BSA, with a final assay volume of 10 μL. An Echo E550 (Beckman Coulter, USA) acoustic liquid dispenser was used to create final concentration ranges from 82 μM down to 2.05 nM for iTAG1 and 27 μM down to 0.68 nM for iTAG2. […] Finally, IMiDs were added to a final concentration of 10 μM with the Echo. Plates were sealed, centrifuged at 200 g for 1 min and stored overnight at 4° C. The TR-FRET signals were read using a PHERAstar FSX plate reader (BMG Labtech, Germany).

[3] = target: T3, complex formed between CRBN/DDB1 and lenalidomide (UniProt Q96SW2 1-442; Q16531 2-1140, limits assumed); assay: TR-FRET displacement of Sulfo-Cy5 Aiolos peptide probe from CRBN/DDB1 with 10 uM lenalidomide. The figure is told overall for the three IMiDs.
T3 construct: mature; Same proteins as m3 with 10 uM lenalidomide. 'mature' stands for the printed 'WT full length'; also called CRBN/DDB1 in the presence of lenalidomide
T3 sequence (Q96SW2 whole entry, chain 1 of 2): as the sequence (Q96SW2 whole entry, chain 1 of 2) above
T3 sequence (Q16531 2-1140 limits assumed, chain 2 of 2): as the sequence (Q16531 2-1140 limits assumed, chain 2 of 2) above
Protocol: as §1

[4] = target: T4, complex formed between CRBN/DDB1 and pomalidomide (UniProt Q96SW2 1-442; Q16531 2-1140, limits assumed); assay: TR-FRET displacement of Sulfo-Cy5 Aiolos peptide probe from CRBN/DDB1 with 10 uM pomalidomide. The figure is told overall for the three IMiDs.
T4 construct: mature; Same proteins as m3 with 10 uM pomalidomide. 'mature' stands for the printed 'WT full length'; also called CRBN/DDB1 in the presence of pomalidomide
T4 sequence (Q96SW2 whole entry, chain 1 of 2): as the sequence (Q96SW2 whole entry, chain 1 of 2) above
T4 sequence (Q16531 2-1140 limits assumed, chain 2 of 2): as the sequence (Q16531 2-1140 limits assumed, chain 2 of 2) above
Protocol: as §1

T1 sequence (Q96SW2 whole entry, chain 1 of 2): as the sequence (Q96SW2 whole entry, chain 1 of 2) above
T1 sequence (Q16531 whole entry, chain 2 of 2): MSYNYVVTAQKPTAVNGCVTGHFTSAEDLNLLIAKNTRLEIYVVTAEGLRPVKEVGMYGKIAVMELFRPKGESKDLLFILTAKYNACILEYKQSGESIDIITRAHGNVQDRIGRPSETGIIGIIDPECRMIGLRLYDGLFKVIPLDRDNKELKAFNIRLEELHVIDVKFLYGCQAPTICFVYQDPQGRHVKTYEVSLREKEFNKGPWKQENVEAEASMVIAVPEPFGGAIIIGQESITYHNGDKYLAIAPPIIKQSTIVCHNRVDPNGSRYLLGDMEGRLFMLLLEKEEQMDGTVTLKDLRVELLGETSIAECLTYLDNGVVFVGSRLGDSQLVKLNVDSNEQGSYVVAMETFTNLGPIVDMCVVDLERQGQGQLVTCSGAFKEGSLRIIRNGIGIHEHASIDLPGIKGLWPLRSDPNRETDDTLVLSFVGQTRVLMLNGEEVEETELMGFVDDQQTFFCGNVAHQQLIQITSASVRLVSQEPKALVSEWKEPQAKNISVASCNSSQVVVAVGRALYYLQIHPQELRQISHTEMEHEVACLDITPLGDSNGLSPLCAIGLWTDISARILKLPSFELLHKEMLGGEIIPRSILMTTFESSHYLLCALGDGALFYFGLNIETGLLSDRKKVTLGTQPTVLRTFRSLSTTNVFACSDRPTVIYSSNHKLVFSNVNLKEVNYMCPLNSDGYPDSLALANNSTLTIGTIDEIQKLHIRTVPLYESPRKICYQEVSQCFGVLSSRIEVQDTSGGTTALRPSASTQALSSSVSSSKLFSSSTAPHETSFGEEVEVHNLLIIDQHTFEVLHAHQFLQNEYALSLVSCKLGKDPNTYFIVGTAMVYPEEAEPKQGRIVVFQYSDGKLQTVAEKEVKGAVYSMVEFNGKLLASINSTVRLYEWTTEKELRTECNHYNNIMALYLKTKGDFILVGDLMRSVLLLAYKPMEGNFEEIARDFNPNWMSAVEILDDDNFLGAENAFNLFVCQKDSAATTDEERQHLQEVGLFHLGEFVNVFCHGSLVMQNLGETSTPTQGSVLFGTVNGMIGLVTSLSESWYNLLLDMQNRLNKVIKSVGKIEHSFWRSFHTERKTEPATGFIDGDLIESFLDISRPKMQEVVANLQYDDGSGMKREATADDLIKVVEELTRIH

fold difference of IC50 against iTAG1 [2]: ~10 fold
fold difference of IC50 against iTAG1 [3]: ~10 fold
fold difference of IC50 against iTAG1 [4]: ~10 fold
B1: iTAG2 (DCD23mut) (designed binder)
chain: PNVLMVHNESHTGEIPLQCEICGFTCEQAGNLLNHIELHSGEIPFKCHLCNYACRRRDAL
notes: Purified iTAG2 protein
binding result [1]: no binding (tested: CRBN/DDB1 at 15 uM and iTAG2 at 50 uM)
